# Experimental data reported in publication PMC2926592.
# How the values were obtained:
# [1] = target: human XRCC1 P161L population variant, recombinant, S-peptide- and His-tagged (human) (UniProt P18887); experiment: pull-down
# [2] = target: human XRCC1 R109A variant, recombinant, S-peptide- and His-tagged (human) (UniProt P18887); experiment: pull-down
substance,measurement,setting,value
"DNA polymerase β (POLβ), recombinant (from UniProt P06746 1-335) (enzyme)",percent decrease in POLβ retention against WT XRCC1,[1],20%
same,fold decrease in POLβ retention against WT XRCC1,[2],5 fold
same,percent decrease in POLβ retention against WT XRCC1,[2],83%
